According to patent publication US20250188136A1, “AV3 MUTANT POLYPEPTIDES FOR PEST CONTROL” (Vestaron Corporation, priority 2021, published 2025):
“Also recorded” adds a separate entry of the source. Ends that are not written are not given here.

Key:
houseflies = test: Housefly injection assay (knock-down); assay type: in vivo, Musca domestica
Method: An exemplary housefly injection bioassay is as follows: conditioned media is serially diluted to generate full dose-response curves from the housefly injection bioassay. Before injection, adult houseflies (Musca domestica) are immobilized with CO2, and 12-18 mg houseflies are selected for injection. A microapplicator, loaded with a 1 cc syringe and 30-gauge needle, is used to inject 0.5 μL per fly, doses of serially diluted conditioned media samples into houseflies through the body wall of the dorsal thorax. The injected houseflies are placed into closed containers with moist filter paper and breathing holes on the lids, and they are examined by knock-down ratio or by mortality scoring at 24 hours post-injection. Normalized yields are calculated. Peptide yield means the peptide concentration in the conditioned media in units of mg/L. However, peptide yields are not always sufficient to accurately compare the strain production rate. […] A culture with a high cell density may produce a higher concentration of the peptide in the media, even though the peptide production rate of the strain is lower than another strain which has a higher production rate. Accordingly, the term “normalized yield” is created by dividing the peptide yield with the cell density in the corresponding culture and this allows a better comparison of the peptide production rate between strains. The cell density is represented by the light absorbance at 600 nm with a unit of “A” (Absorbance unit).
A housefly injection assay was performed to determine the activity of the new mutants. Adult houseflies were immobilized with CO2 for 10 minutes, and then transferred to a CO2 pan to keep immobilized. Flies with weight between 12-20 mg were picked for injection. The new mutants and Av3b control were diluted in water to proper doses for injection. Next, a 0.5 μL peptide solution was injected into each housefly at the dorsal thorax using a hand-microapplicator with 1 cc all-glass syringe with 30 gauge straight needle. The injected flies were then transferred to a 2 oz. transparent portion container with a wet #4 filter paper. Fly knock-down was assessed at 5-hours post-injection. The activity of a given new mutant was then normalized to the activity of the Av3b production strain (control), using the fly knock-down score at 5 hours.

[1] = Stability of purified peptide spiked into Av3b fermentation beer (rpHPLC); assay type: physicochemical
Method: To determine the stability of the new mutants, Av3bM19, Av3bM23, Av3bM24, Av3bM25, Av3bM27, and Av3bM28 were purified and incubated in Av3b fermentation beer. The mutants were purified by cation-exchange chromatography using a GE SP-Sephadex C-25 column. The column was first calibrated with 30 mM sodium citrate buffer at pH 3.0. Then, the culture supernatant containing the secreted mutant peptide was loaded into the column to let the mutant peptide bind to the resin. The column was then washed with 30 mM sodium citrate buffer, pH 3.0, followed by washing with 30 mM sodium acetate, pH 4.0. Next, the bound mutant peptide was eluted by 1 M or 2 M NaCl with 30 mM sodium acetate, pH 4.0. The elution was then concentrated and buffer-exchanged to 30 mM sodium acetate, pH 4.0 using a 1 kD cutoff spin concentrator.
After purification, each of the mutants, Av3bM19, Av3bM23, Av3bM24, Av3bM25, Av3bM27, and Av3bM28, were evaluated for stability by spiking them into Av3b strain fermentation beer at pH 6.5. As a negative control, Av3b was evaluated in a pH 4.0 buffer. As a positive control, purified Av3b was evaluated by spiking into the same Av3b fermentation beer at pH 6.5. All stability experiments were performed at room temperature. […] The amount of peptide remaining relative to the beginning was determined by normalizing the peak area at different time to the one at 0 hour for each treatment. The degradation trend is visualized by the bar graph of the relative remaining peptide amount trend.

[2] = Thermo-stability at 54° C. in pH 4.0 solution; assay type: physicochemical
Method: A thermo-stability study was performed for Av3b, Av3bM24, Av3bM165, Av3bM103, and Av3bM170 in a pH 4.0 solution at 54° C. for 0, 3, 7, 10, 12, and 14 days, with a caffeine internal control to cancel variation from evaporation. Samples of 1 mL were prepared in 1.5 mL microtube with sodium acetate buffer (NaOAc) at pH 4.0, containing 0.1 μg/μL of peptide, and 0.025 μg/μL of caffeine. The samples were incubated at 54° C. in a dry mixer. At 0, 3, 7, 10, 12, and 14 days, 20 μL of each sample was analyzed via analytic rpHPLC system to evaluate peptide loss. Each sample contained a fixed amount caffeine, which was used to compensate the peptide HPLC UV absorbance peak change due to volume change by evaporation. FIG. 68.

[3] = Stability of Av3b mutants in insect gut extract; assay type: in vitro ADME, Helicoverpa zea; settings: H. zea gut extract digestion, room temperature
Method: To test the stability of the Av3b mutants in the gut enzymes of a lepidopteran pest, the gut extract were prepared from Helicoverpa zea (Corn Earworm or “CEW”). Corn Earworm insects were obtained commercially from Benzon Research (Carlisle, PA) as eggs. Hatched larvae were raised on artificial diet until ⅘^th instar (20 mm long) before guts were isolated. Before gut extraction, larvae were anesthetized using CO2. The larva was then pinned on the dissection plate at both the head and the tail. Using dissection scissors, the cuticle was nicked. The dissection scissors were then inserted into the nick and the […] along the insect. The cuticle was then carefully pulled back and pinned open to reveal the digestive track. Using DI water, the insect was thoroughly rinsed to remove hemolymph.
After the insect guts were extracted from the larva, they were spun at 15000 rpm for 5 minutes. The resulting supernatant is the “insect gut extract” that was used to determine peptide stability. Av3b mutant peptide was mixed with the gut extract to […] of 2 μg/μL, and incubated at room temperature. At time points between 0-100 hours, 6 μL of a given sample was mixed with 93 μL dH2O followed by the addition of 1 μL of a 2% trifluoracetic acid solution to stop the reaction. The sample was then analyzed by rpHPLC to determine the peptide loss during the gut extract treatment.

With “KSCCPCYWGGCPWGQNCYPEGCDGPK (ends and bridges not checked; cysteine pairing not given here) [Av3bM24]” as the sequence, how does the “housefly knock-down / insecticidal activity relative to Av3b” value (houseflies; knock-down at 5 hours post-injection) read?
The value was “without a concomitant reduction in housefly knock-down activity; also recorded: insecticidal activity”.

And the Activity (houseflies; knock-down at 5 hours post-injection normalized to Av3b, Yes = insecticidal activity maintained)?
The Activity was “Yes”.

What about the half-degradation time ([1]; Av3b production fermentation beer pH 6.5, room temperature (Example 11, FIG. 37)) of the same sequence?
Its half-degradation time is 652 h.

And the peptide remaining ([1]; fermentation beer pH 6.5, room temperature, 248 hours, HPLC peak area relative to starting amount)?
Its peptide remaining is 84%.

And the “resistance to fermentation beer protease cleavage compared to Av3b” value ([1]; spiked into Av3b fermentation beer pH 6.5, room temperature)?
The value was “greater resistance to yeast fermentation beer protease cleavage; also recorded: improved resistance to fermentation beer cleavage; also recorded: resist the degradation in Av3b fermentation beer”.

And the “peptide change on day 14” value ([2]; pH 4.0, 54° C., HPLC peak area, + mass increase, − mass loss)?
Its value is −29.5%.

What about the “thermo-stability at 54° C.” value ([2]; pH 4.0 solution, up to 14 days) of the same sequence?
The value was “not thermo-stable”.

And the “resistance to degradation in gut extract” value [3]?
The value was “most resistant to degradation”.
